Test results published in publication PMC9537531, “DNA-delivered antibody cocktail exhibits improved pharmacokinetics and confers prophylactic protection against SARS-CoV-2” (Nature Communications, 2022).
Where “and” joins values, the source holds several entries; their conditions need not be identical. Identical values can stand only once.

B1: 2130 dFab, DNA-encoded Fab obtained from serum-derived DMAb 2130 TM(m3) (Fab, V domains shown)
VH: EVQLVESGGGLVKPGGSLRLSCAASGFTFRDVWMSWVRQAPGKGLEWVGRIKSKIDGGTTDYAAPVKGRFTISRDDSKNTLYLQMNSLKTEDTAVYYCTTAGSYYYDTVGPGLPEGKFDYWGQGTLVTVSS
VL: not shown
notes: also called dFab 2130
B2: 2196 dFab, DNA-encoded Fab obtained from serum-derived DMAb 2196 TM(m3) (Fab, V domains shown)
VH: QMQLVQSGPEVKKPGTSVKVSCKASGFTFMSSAVQWVRQARGQRLEWIGWIVIGSGNTNYAQKFQERVTITRDMSTSTAYMELSSLRSEDTAVYYCAAPYCSSISCNDGFDIWGQGTMVTVSS
VL: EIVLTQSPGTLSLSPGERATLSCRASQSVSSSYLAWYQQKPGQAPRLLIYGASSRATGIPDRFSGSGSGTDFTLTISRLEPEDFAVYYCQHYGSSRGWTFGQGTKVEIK
notes: also called dFab 2196; 2196DMAb Fab

Biological target: T1, SARS-CoV-2 6P spike ectodomain peplomer (USA-WA1/2020; 6P stabilization) (SARS-CoV-2 USA-WA1/2020 (MN985325), stabilised)
T1 construct: also called stabilized spike trimer; spike peplomer
Assay: cryo-EM structure
Settings: both partners purified

Row | Binder | stoichiometry N
1 | B1 | 3 dFabs per spike trimer
2 | B2 | 1 dFab per spike trimer and 2 dFabs per spike trimer and 1 copy per RBD (all three RBDs)
